Source: article PMC5582858, “The yeast kinesin-5 Cin8 interacts with the microtubule in a noncanonical manner” (The Journal of Biological Chemistry, 2017)

Assays:
[1] = biological target: Paclitaxel-stabilized microtubules (bovine brain αβ-tubulin) (bovine) (UniProt Q6B856)
[2] = biological target: Paclitaxel-stabilized microtubules (bovine brain αβ-tubulin) (bovine) (UniProt Q6B856); test: co-sedimentation; 3 μM Cin8, 1 μM microtubules, no added nucleotide or 1 mM ATP, ADP or AMPPNP, low and high ionic strength; SDS-PAGE of supernatant and pellet

K0.5,MT of the microtubule-stimulated steady-state ATPase (NADH coupled assay), 21 mM ionic strength [1]: 1.3 µM | stoichiometry N [2]: 1.3
Substance: Cin8-His-Δ99 (Cin8 motor domain in which the 99-residue loop 8 insert is substituted with the 7-residue loop 8 of Kip1) (from UniProt P27895 70-535) (domain or fragment)
